Source: US7662769B2, “Glycosyltransferase GnT-V having neovascularization action” (Suntory Holdings Limited, priority 2002, dated 2010)
*1 amine or outer side, *2 acyl side, *3 side chain or, on linkers, in order; H or OH if unused. Where a SMILES comes first, the peptide text is derived from it. [ ]: non-standard residue; d: D form. The star is where a group is joined. X1 = CC(N[*:1])C(=O)C(F)(F)C(=O)[*:2]; Boc = CC(C)(C)OC(=O)*

B1: GnT-VΔ233: GnT-V lacking variant, amino acid sequence from Glu234 to Leu741 of human GnT-V with C-terminal polyhistidine tag (protein, UniProt Q09328 234-741, looked up, fragment)
chain: EFRWMRLRIRRMADAWIQAIKSLAEKQNLEKRKRKKVLVHLGLLTKESGFKIAETAFSGGPLGELVQWSDLITSLYLLGHDIRISASLAELKEIMKKVVGNRSGCPTVGDRIVELIYIDIVGLAQFKKTLGPSWVHYQCMLRVLDSFGTEPEFNHANYAQSKGHKTPWGKWNLNPQQFYTMFPHTPDNSFLGFVVEQHLNSSDIHHINEIKRQNQSLVYGKVDSFWKNKKIYLDIIHTYMEVHATVYGSSTKNIPSYVKNHGILSGRDLQFLLRETKLFVGLGFPYEGPAPLEAIANGCAFLNPKFNPPKSSKNTDFFIGKPTLRELTSQHPYAEVFIGRPHVWTVDLNNQEEVEDAVKAILNQKIEPYMPYEFTCEGMLQRINAFIEKQDFCHGQVMWPPLSALQVKLAEPGQSCKQVCQESQLICEPSFFQHLNKDKDMLKYKVTCQSSELAKDILVPSFDPKNKHCVFQGDLLLFSCAGAHPRHQRVCPCRDFIKGQVALCKDCL
modifications: C-terminal His tag
B2: GnT-VΔ436: GnT-V lacking variant, amino acid sequence from Ile437 to Leu741 of human GnT-V with C-terminal polyhistidine tag (protein, UniProt Q09328 437-741, looked up, fragment)
chain: IHHINEIKRQNQSLVYGKVDSFWKNKKIYLDIIHTYMEVHATVYGSSTKNIPSYVKNHGILSGRDLQFLLRETKLFVGLGFPYEGPAPLEAIANGCAFLNPKFNPPKSSKNTDFFIGKPTLRELTSQHPYAEVFIGRPHVWTVDLNNQEEVEDAVKAILNQKIEPYMPYEFTCEGMLQRINAFIEKQDFCHGQVMWPPLSALQVKLAEPGQSCKQVCQESQLICEPSFFQHLNKDKDMLKYKVTCQSSELAKDILVPSFDPKNKHCVFQGDLLLFSCAGAHPRHQRVCPCRDFIKGQVALCKDCL
modifications: C-terminal His tag
B3: GnT-V: secretory type glycosyltransferase N-acetylglucosaminyltransferase V (protein, UniProt Q09328 1-741, looked up)
Alpha-1,6-mannosylglycoprotein …: MALFTPWKLSSQKLGFFLVTFGFIWGMMLLHFTIQQRTQPESSSMLREQILDLSKRYIKALAEENRNVVDGPYAGVMTAYDLKKTLAVLLDNILQRIGKLESKVDNLVVNGTGTNSTNSTTAVPSLVALEKINVADIINGAQEKCVLPPMDGYPHCEGKIKWMKDMWRSDPCYADYGVDGSTCSFFIYLSEVENWCPHLPWRAKNPYEEADHNSLAEIRTDFNILYSMMKKHEEFRWMRLRIRRMADAWIQAIKSLAEKQNLEKRKRKKVLVHLGLLTKESGFKIAETAFSGGPLGELVQWSDLITSLYLLGHDIRISASLAELKEIMKKVVGNRSGCPTVGDRIVELIYIDIVGLAQFKKTLGPSWVHYQCMLRVLDSFGTEPEFNHANYAQSKGHKTPWGKWNLNPQQFYTMFPHTPDNSFLGFVVEQHLNSSDIHHINEIKRQNQSLVYGKVDSFWKNKKIYLDIIHTYMEVHATVYGSSTKNIPSYVKNHGILSGRDLQFLLRETKLFVGLGFPYEGPAPLEAIANGCAFLNPKFNPPKSSKNTDFFIGKPTLRELTSQHPYAEVFIGRPHVWTVDLNNQEEVEDAVKAILNQKIEPYMPYEFTCEGMLQRINAFIEKQDFCHGQVMWPPLSALQVKLAEPGQSCKQVCQESQLICEPSFFQHLNKDKDMLKYKVTCQSSELAKDILVPSFDPKNKHCVFQGDLLLFSCAGAHPRHQRVCPCRDFIKGQVALCKDCL

Legend:
PaCa-2/GnT-V cell = experiment: GnT-V activity in culture solution (production of secretory type GnT-V), PaCa-2/GnT-V cell; assay type: cell-based; conditions: 100 μM in DMSO, FIG. 10A
KB/GnT-V cell = experiment: GnT-V activity in culture solution (production of secretory type GnT-V), KB/GnT-V cell; assay type: cell-based; conditions: 100 μM in DMSO, FIG. 10B
HUVEC [1] = experiment: HUVEC differentiation and growth, incorporation of [3H]-thymidine (DNA synthesis); assay type: cell-based, human; conditions: [3H]-thymidine incorporation; FIG. 2, 3B, 6
Protocol: For in vitro evaluation of induction of neovascularization by a GnT-V transformant, the amount of synthesis of DNA of human umbilical vein […] cells (HUVEC) after stimulation with culture solution of a GnT-V transformant was measured by a method of Soker et al.(Soker, S., et al., J. Biol. Chem. 272, 31582-31588 (1997)). HUVEC was inoculated on a 96-well plate coated with type I collagen at a rate of 2×10^3 cells per well, and 24 hours later, the medium was substituted with an MCDB131 medium (not containing FBS and FGF-2) containing 0.1% […] and a starved condition was maintained for 24 hours. The medium was substituted with culture solution of the WiDr cell transformed with the glycosyltransferase gene described in Example 1, and HUVEC was stimulated for 24 hours. HUVEC was maintained for 8 hours with [^3H]-thymidine (1 μCi/ml), and incorporation of [^3H]-thymidine into HUVEC was analyzed by MicroBeta-Counter (manufactured by Wallac) to measure the amount of synthesis of DNA. The result was shown as the mean value of assay results of 6 wells, and the standard deviation was measured. All experiments were repeated at least three times, and the same results were obtained. As apparent from FIG. 1, DNA synthesis of HUVEC stimulated with the culture solution of WiDr cells transformed with a GnT-V gene increased, however, the same effect was not observed in culture solution of WiDr cells transformed with other glycosyltransferase genes.
Purification of a neovascularization factor present in culture solution of WiDr cells transformed with a GnT-V gene was conducted using various column chromatographies. The neovascularization activity of each fraction was evaluated by differentiation and growth of HUVEC described in Example 3. In heparin affinity chromatography, a fraction of high growth activity of HUVEC was eluted with 0.3 M NaCl. Since known growth factors such as FGF-1, FGF-2, VEGF, placenta-induced growth factor (PIGF) and hepatocyte growth factor (HGF) and the like are eluted with 0.8 to 1.5 M NaCl (Hauser, S. & Weich H. A., Growth Factor 9, 259-268 (1993). Gohda, E., et al., J. Clin. Invest. 81, 414-419 (1998). Marez, A., et al., Biochimie 69, 125-129 (1987). Risau, W., et al., The EMBO J. 7, 959-962 (1988). Rothenthal, R. A., et al., Growth Factor 4, 53-59 (1990)), the above-mentioned nature is utterly different from the natures of these known growth factors. […] A fraction eluted with 0.3 M NaCl in heparin affinity chromatography was subjected to Western blot analysis using an anti-GnT-V antibody to find that the reaction of the anti-GnT-V antibody and the differentiation and growth activity of HUVEC are consistent each other, and the main protein having a differentiation and growth activity of HUVEC present in the fraction is GnT-V itself.

[2] = glycosyltransferase activity of GnT-V deficient variants; assay type: biochemical; conditions: recombinant variants from Sf21 cells
Text: For clarifying which domain of GnT-V is involved in HUVEC growth accelerating activity, a GnT-V lacking variant shown in FIG. 3A was produced. The method of production of a GnT-VΔ188 plasmid is disclosed in a literature of Sasai et al (Sasai, K., et al., Glycobiology (in press)). A transfer plasmid having a GnT-VΔ233 gene was produced by binding a DNA fragment of 1521 base pairs encoding polyhistidine tag at the C-terminal and an amino acid sequence of from Glu234 to Leu741 of human GnT-V, obtained by cutting a GnT-VΔ188 plasmid with EcoRI and EagI, to an EcoRI-EagI site of a transfer vector pAcGP67-A (manufactured by PharMingen). A transfer plasmid having a GnT-VΔ436 gene was produced by binding a DNA fragment of 912 base pairs encoding polyhistidine tag at the C terminal and an amino acid sequence of from Ile437 to Leu741, of human GnT-V, obtained by cutting a GnT-VΔ188 plasmid with EcoRV and EagI, to an EcoRV-EagI site of a transfer vector pAcGP67-A. For production of a recombinant Baculovirus, an insect cell Sf21 was transformed with the transfer plasmid obtained above according to a method known in a literature (Ikeda, Y., et al., J. Biochem. 128, 609-619 (2000)). The recombinant glycosyltransferase derived from the transformed Sf21 cell was purified by Ni^2+-chelating affinity chromatography according to a method disclosed in a literature of Sasaki et al (Sasai, K., et al., Glycobiology (in press)).

HSPG on HUVEC = experiment: release of FGF-2 from HSPG on HUVEC (FGF-2 ELISA of supernatant); assay type: cell-based, human; conditions: 4° C., 2 hours; FIG. 5
Text: A basic peptide (KRKRKK peptide) composed of Lys-Arg-Lys-Arg-Lys-Lys (SEQ ID NO: 11) which is an amino acid sequence of from 264 to 269 and a non-basic control peptide (FSGGPL peptide) composed of Phe-Ser-Gly-Gly-Pro-Leu (SEQ ID NO: 12) which is an amino acid sequence of from 291 to 296, of GnT-V, were synthesized, and an influence of these peptides on growth of HUVEC was examined. The peptide was synthesized by a peptide synthesizer A432 (manufactured by Applied Biosystems), and purified by reverse phase HPLC, then, its molecular weight and degree of purification were confirmed by MALDI TOF-MS (Voyager-DE (registered trademark) RP; manufactured by PerSeptive Biosystems). The concentration of FGF-2 was measured by a known method (Barillari, G., et al., American J. Patho. 152, 1161-1166 (1998)). […] After centrifugation at 4° C. and 3000 rpm for 5 minutes, the supernatant was collected, the concentration of FGF-2 in the supernatant was measured in an FGF-2 ELISA system (manufactured by R&D Systems) according to a manual of this system.
As described above, various deficient variants of GnT-V and synthetic peptides were added at 4° C. to culture solution of HUVEC, and the amount of FGF-2 released from HSPG on HUVEC was measured.

chicken microvessels = experiment: CAM (chorioallantoic membrane) assay of neovascularization; assay type: in vivo; conditions: ex-vivo, chicken embryo CAM
Protocol: Acceleration of neovascularization by a GnT-V transformant was confirmed by a CAM (chorioallantoic membrane) assay using an embryo of a chicken fertilized egg. The CAM assay was conducted by a method of Yen et al. (Yen, L., et al., Oncogene 19, 3460-3469 (2000)) and a method of Bernardini (Bernardini, G., et al., Blood 96, 4039-4045 (2000)), both being slightly modified. CAM 8 days after fertilization of white Leghorn was used, and 1×10^5 cells thereof were inoculated on a collagen sponge and maintained for 4 hours. A 5 mm silicon ring was placed on CAM on the collagen sponge and maintained for 48 hours.
(§1) Induction of neovascularization by GnT-V was confirmed also by other in vitro neovascularization assays such as a capillary-like tube formation assay (Ashoton, A. W., et al., J. Biol. Chem. 274, 35562-35570 (1999)) and a migration assay (Zeng, H., et al., J. Biol. Chem. 276, 3271-3279 (2001)) using HUVEC.

HUVEC [3] = experiment: capillary-like tube formation assay using HUVEC; assay type: cell-based, human
Text: as §1

HUVEC [4] = experiment: migration assay using HUVEC; assay type: cell-based, human
Text: as §1

| Molecule | differentiation and growth of HUVEC (HUVEC growth accelerating activity) (HUVEC [1]) | glycosyltransferase activity [2] | release of FGF-2 from HSPG on HUVEC (HSPG on HUVEC) | also measured |
| --- | --- | --- | --- | --- |
| CCC(C)C(NC(=O)C(NC(=O)OC(C)(C)C)C(C)C)C(=O)NC(C)C(=O)C(F)(F)C(=O)NC(C(=O)NC(C(=O)OC)C(C)CC)C(C)C (centres unmarked) [DFK167] (Boc-VI[X1]VI-OMe; configuration not given here) |  |  |  | GnT-V activity in culture solution (PaCa-2/GnT-V cell): could not be detected; GnT-V activity in culture solution (KB/GnT-V cell): could not be detected |
| B1 | had an HUVEC growth and differentiation accentuation action | had no glycosyltransferase activity | released FGF-2 |  |
| B2 | did not have an HUVEC growth and differentiation accentuation action | had no glycosyltransferase activity | did not affect release of FGF-2 | induction of neovascularization in CAM assay (chicken microvessels): did not have a neovascularization activity |
| B3 |  |  |  | induction of neovascularization, capillary-like tube formation (HUVEC [3]): confirmed; induction of neovascularization, migration (HUVEC [4]): confirmed |
